We go through one protein from US20030059812.

For this series, the target named is 3H-histones isolated from murine erythroleukemia cells.

B1: HDAC9a-FLAG (C-terminal FLAG-tagged HDAC9a, expressed from pFLAG-CMV-5b-HDAC9a, plasmid VR2) (protein)
chain: MHSMISSVDVKSEVPVGLEPISPLDLRTDLRMMMPVVDPVVREKQLQQELLLIQQQQQIQKQLLIAEFQKQHENLTRQHQAQLQEHIKELLAIKQQQELLEKEQKLEQQRQEQEVERHRREQQLPPLRGKDRGRERAVASTEVKQKLQEFLLSKSATKDTPTNGKNHSVSRHPKLWYTAAHHTSLDQSSPPLSGTSPSYKYTLPGAQDAKDDFPLRKTASEPNLKVRSRLKQKVAERRSSPLLRRKDGNVVTSFKKRMFEVTESSVSSSSPGSGPSSPNNGPTGSVTENETSVLPPTPHAEQMVSQQRILIHEDSMNLLSLYTSPSLPNITLGLPAVPSQLNASNSLKEKQKCETQTLRQGVPLPGQYGGSIPASSSHPHVTLEGKPPNSSHQALLQHLLLKEQMRQQKLLVAGGVPLHPQSPLATKERISPGIRGTHKLPRHRPLNRTQSAPLPQSTLAQLVIQQQHQQFLEKQKQYQQQIHMNKLLSKSIEQLKQPGSHLEEAEEELQGDQAMQEDRAPSSGNSTRSDSSACVDDTLGQVGAVKVKEEPVDSDEDAQIQEMESGEQAAFMQQPFLEPTHTRALSVRQAPLAAVGMDGLEKHRLVSRTHSSPAASVLPHPAMDRPLQPGSATGIAYDPLMLKHQCVCGNSTTHPEHAGRIQSIWSRLQETGLLNKCERIQGRKASLEEIQLVHSEHHSLLYGTNPLDGQKLDPRILLGDDSQKFFSSLPCGGLGVDSDTIWNELHSSGAARMAVGCVIELASKVASGELKNGFAVVRPPGHHAEESTAMGFCFFNSVAITAKYLRDQLNISKILIVDLDVHHGNGTQQAFYADPSILYISLHRYDEGNFFPGSGAPNEVRFISLEPHFYLYLSGNCIA
Consider B1, for which the “HDAC enzymatic activity (3H-acetic acid released from 3H-histones)” value was “HDAC9a-FLAG deacetylated 3H-acetyl-histones”.
